Data set [1] relates to T2DM subjects. Briefly: Phase IIa clinical trial, efficacy and safety in T2DM subjects. Format: in vivo, human. As for the experimental part: Key inclusion criteria for the phase IIa study: • Patients with T2DM (WHO 1999) who have not taken metformin for at least 1 week and have not taken any other oral antidiabetic drugs for at least 2 weeks. • HbA1c levels at screening: 7.0%≤HbA1c≤10.0%. • Age between 18 and 65 years at screening. • BMI ≥20 kg/m^2 and ≤40 kg/m^2.
Key exclusion criteria for the phase IIa study: • Type 1 diabetes. • Fasting C-peptide <0.81 ng/mL. • Laboratory parameters meeting one of the following criteria: alanine aminotransferase (ALT) levels ≥2.5 ×ULN, and/or aspartate aminotransferase (AST) levels ≥2.5 ×ULN, fasting triglycerides >5.6 mmol/L; estimated glomerular filtration rate (eGFR) calculated by the CKD-EPI (EPI-(Scr)) equation <45 mL/min/1.73 m^2, • Known susceptibility to familial (first-degree relatives) or personal history of type 2 multiple endocrine neoplasia or medullary thyroid carcinoma. • Uncontrolled hypertension. • Known history of pancreatitis, pancreatic cancer, or serum amylase >1.2 ×ULN, or high-risk factors for pancreatitis at screening. • Patients with uncontrolled hypothyroidism. • Suspicion of active infection. • Positive hepatitis B surface antigen (HBsAg), hepatitis C antibody (HCV-Ab), human immunodeficiency virus antibody (HIV-Ab), or Treponema pallidum antibody (TPAb). • Treatment with GLP-1 receptor agonists, DPP-4 inhibitors, or insulin in the 3 months prior to randomization. • History of grade 3-4 allergy to any protein drug as per CTCAE. • Blood donation or blood loss exceeding 450 mL in the 3 months prior to screening. • Any significant endocrine, immune, coagulation, urinary reproductive tract abnormality, or hematological disease. • Clinically significant gastric emptying disorder (e.g., gastric outlet obstruction), severe chronic gastrointestinal disease (e.g., active ulcer within 6 months), long-term use of drugs directly affecting gastrointestinal motility, or previous gastrointestinal surgery. • Any other condition that the investigator or primary physician deems unsuitable for participation in the study. […]

The test system of data set [2] is DIO mice. Briefly: High-fat diet-induced obese (DIO) mice. Format: in vivo. As for the experimental part:
The effects of multiple administrations of YN-011 on glucose tolerance, insulin sensitivity, metabolism, and weight reduction were evaluated in high-fat diet (HFD)-induced obese mice. Male C57BL/6 mice, 5 months old (obtained from commercial sources such as Shanghai Slake Experimental Animals Co., Ltd., under standard housing conditions), were fed with an HFD (60% of total calories from fat, 20% from carbohydrates) for 6 months to establish the diet-induced obesity (DIO) mouse model. The DIO mice (weighing >50 g) were then divided into two groups (5 animals per group), with the experimental group receiving subcutaneous injections of 0.3 mg/kg of YN-011 twice a week (BIW) and the control group receiving phosphate-buffered saline (PBS) injections. The treatment was administered for 4 weeks.

Setting [3] is: 0.3 mg/kg sc BIW, 4 weeks, P<0.001.

Entries after “also recorded” stand apart in the source; their conditions may differ.

B1: YN-011: GLP-1 fusion protein of SEQ ID NO: 7: GLP-1 (A8G, G22E, R36G), linker peptide and IgG2/Fc domain (C222S, A330S, P331S) (protein)
chain: HGEGTFTSDVSSYLEEQAAKEFIAWLVKGGGSSGAPPPSGGGGSERKSCVECPPCPAPPVAGPSVFLFPPKPKDTLMISRTPEVTCVVVDVSHEDPEVQFNWYVDGVEVHNAKTKPREEQFNSTFRVVSVLTVVHQDWLNGKEYKCKVSNKGLPSSIEKTISKTKGQPREPQVYTLPPSREEMTKNQVSLTCLVKGFYPSDIAVEWESNGQPENNYKTTPPMLDSDGSFFLYSKLTVDKSRWQQGNVFSCSVMHEALHNHYTQKSLSLSPG
On to B1, for which the “side effects or safety risks” value in data set [1] (1-4 mg sc) is recorded as “No significant side effects or safety risks”. In addition, in data set [1] (multiple sc administrations, 1 mg, 3 mg or 4 mg, p<0.05), the “HbA1c levels compared to placebo” value is given as “persistent improvement; also recorded: significant difference compared to the placebo”. For the same molecule, the “fasting blood glucose compared to placebo” value in data set [1] (multiple sc administrations, 3 mg or 4 mg, p<0.05) is given as “statistically significant improvement; also recorded: significant difference compared to the placebo”. In data set [2], the “UcP1 expression in BAT and epididymal WAT” value is recorded as “no effect”; the “Ucp1 expression in inguinal WAT” value is “significantly upregulated”. Further, in data set [2] (0.3 mg/kg sc BIW, 4 weeks), the body weight entry is given as “significantly reduced”; the “ectopic lipid accumulation and hepatic triglycerides” value was “significantly reduced”; the “weight of other tissues (BAT, inguinal WAT, pancreas, calf muscle)” value is “no impact”. In data set [2] (0.3 mg/kg sc BIW, 4 weeks, Ctrl 145.6±16.8, P<0.05), the AST levels stood at 72.20±19.29. Further, the “serum ALT levels” value in data set [2] (0.3 mg/kg sc BIW, 4 weeks, Ctrl 153.4±18.7, P<0.01) was 34.2±7.7. In data set [2] (setting [3]), the “reduction in non-esterified fatty acids (NEFA)” value turned out to be 57%, the “reduction in total cholesterol (TC)” value came to 30% and the “reduction in triglycerides (TG)” value is listed as 68%. In data set [2] (0.3 mg/kg sc BIW, 4 weeks, vs PBS control), the “visceral fat, particularly epididymal fat content” value was “significant decrease”. Also, in data set [2] (after 4 weeks of treatment, glucose fluctuation / IPGTT, P<0.01), the blood glucose entry is “significantly reduced”. Besides, in data set [2] (after 4 weeks of treatment, insulin tolerance, P<0.01), the insulin sensitivity result is recorded as “improved insulin sensitivity”. Further, the core body temperature result in data set [2] (at room temperature) is recorded as “higher core body temperature”. The “VO2, VCO2 and EE normalized to body weight” value in data set [2] (during the night) was “significantly increased”. Moreover, the food consumption result in data set [2] (multiple administrations vs control) is listed as “significant decrease”. Moreover, the “metabolic rate (VO2 and VCO2) and energy expenditure (EE)” value in data set [2] (not normalized, without statistical significance) is given as “increasing trend”.

(Values after patent US20250376498A1, “FUSION PROTEINS COMPRISING AN IMPROVED GLP-1 RECEPTOR AGONIST AND USES THEREOF” (Guangzhou Innogen Pharmaceutical Group Co., Ltd., priority 2022, published 2025).)
